Reference: US20060099701

What was measured:
[1] = tested on: ACDK proteins (immunoprecipitated from brain tissue extracts with the anti-ACDK-specific antibody)
[2] = tested on: cyclin A (immunoprecipitated)

CDK1 (immunoprecipitated, native) was tested, and the “pRB phosphorylation (kinase reaction, Western blot with pRB phosphospecific antibodies)” value (“pRB phosphorylation” for short) [1] was “by ACDK-CDK1 complex at serine 249 and/or threonine 252” and the “pRB phosphorylation” value [2] was “Lane B, pRB phosphorylated by cyclin A-CDK1 (positive control)”.
For CDK2 (immunoprecipitated, native), the “observed phosphorylation efficiency of pRB, against the cyclin A-CDK2 complex” value [1] was “ACDK-CDK2 activity was approximately 2-fold higher than that of cyclin A-CDK2 complex”, the “pRB phosphorylation” value [1] was “pRB was phosphorylated by ACDK-CDK2 complex at threonine 821” and the “pRB phosphorylation” value [2] was “Lane B, pRB phosphorylated by cyclin A-CDK2 (positive control)”.
